Patent US20220275069

Tested on: T1, Recombinant gasdermin D (rGSDMD), full-length
T1 sequence: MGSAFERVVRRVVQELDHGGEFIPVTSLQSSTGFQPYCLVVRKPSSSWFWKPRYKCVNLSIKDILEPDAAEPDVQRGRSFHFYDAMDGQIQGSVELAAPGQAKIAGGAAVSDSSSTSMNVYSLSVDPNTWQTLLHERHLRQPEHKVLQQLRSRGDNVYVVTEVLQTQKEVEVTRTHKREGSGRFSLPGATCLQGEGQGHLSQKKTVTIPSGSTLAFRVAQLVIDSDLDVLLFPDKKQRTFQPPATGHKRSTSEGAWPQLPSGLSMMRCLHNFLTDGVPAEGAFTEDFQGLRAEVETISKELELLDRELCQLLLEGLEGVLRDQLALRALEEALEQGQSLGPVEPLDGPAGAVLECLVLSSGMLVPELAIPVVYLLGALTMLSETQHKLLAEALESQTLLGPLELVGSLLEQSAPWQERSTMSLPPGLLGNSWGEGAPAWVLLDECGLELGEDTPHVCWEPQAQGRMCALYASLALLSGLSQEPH

Recombinant caspase-1 was tested, and the “cleavage of recombinant gasdermin D (1 hour at 37 C, SDS-PAGE and protein stain)” value was “resulted in the formation of a ~31 kDa N-terminal domain and ~22 kDa C-terminal domain”.
